From patent publication US20200317776A1 (published 2020)
Substitutions are numbered along the chain they refer to.

T1: human TREM2 expressed on cells (human, UniProt Q9NZC2 19-230)
T1 construct: BW5147.G.1.4 cells stably expressing human TREM2 together with Dap12, or endogenous TREM2 of primary human myeloid cells; also called huT2 BW; hTREM2 expressing cell line
T1 sequence: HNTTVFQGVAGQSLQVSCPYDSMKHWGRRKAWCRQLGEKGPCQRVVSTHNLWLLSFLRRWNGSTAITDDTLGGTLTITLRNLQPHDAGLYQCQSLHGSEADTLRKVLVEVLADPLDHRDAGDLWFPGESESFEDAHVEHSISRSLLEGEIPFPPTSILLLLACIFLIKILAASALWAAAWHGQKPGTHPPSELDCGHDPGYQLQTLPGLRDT

T2: human TREM2 Fc fusion (entire TREM2 ECD; only one Fc arm fused to TREM2) (human, UniProt Q9NZC2 19-174)
T2 construct: also called huTREM2-Fc; recombinant hTREM2
T2 sequence: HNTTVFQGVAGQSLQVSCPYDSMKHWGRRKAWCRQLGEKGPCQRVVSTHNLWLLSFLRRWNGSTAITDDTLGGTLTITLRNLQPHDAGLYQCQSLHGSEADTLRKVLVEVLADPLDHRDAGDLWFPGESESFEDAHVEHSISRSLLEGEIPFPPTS

B1: AL2p-h19 (antibody, human IgG1, V domains shown)
VH: QVQLVQSGAEVKKPGSSVKVSCKASGYAFSSSWMNWVRQAPGQGLEWMGRIYPGDGDTNYAQKFQGRATITADTSTSTAYMELSSLRSEDTAVYYCARLLRNQPGESYAMDYWGQGTLVTVSS
VL: DIVMTQTPLSLSVTPGQPASISCRSSQSLVHSNGYTYLHWYLQKPGQSPQLLIYKVSNRFSGVPDRFSGSGSGTDFTLKISRVEAEDVGVYYCSQSTRVPYTFGQGTKLEIK
notes: humanized, human IgG1; Fab and IgG formats under one id
B2: AL2p-h27 (antibody, human IgG1, V domains shown)
VH: B1 VH with S16A, M48I, A61N, Q62G, K63E, Q65R, G66V, I70L, Y95F
VL: B1 VL with I2V, V88L, Y92F
notes: as for B1
B3: AL2p-h25 (antibody, human IgG1, V domains shown)
VH: QVQLVQSGAEVKKPGASLKISCKASGYAFSSSWMNWVRQAPGQGLEWIGRIYPGDGDTNYNGEFRVRATLTADTSTSTAYMELSSLRSEDTAVYYCARLLRNQPGESYAMDYWGQGALVTVSS
VL: B1 VL with I2V, V88L, Y92F
notes: as for B1
B4: AL2p-h90 (antibody, human IgG1, V domains shown)
VH: B1 VH with S16A, G44R, M48I, A68V, T76A
VL: DVQMTQSPSSLSASVGDRVTITCRSSQSLVHSNGYTYLHWYQQKPGKSPKLLIYKVSNRFSGVPSRFSGSGSGTDFTLTISSLQPEDFATYYCSQSTRVPYTFGGGTKVEIK
notes: as for B1
B5: AL2p-h24 (antibody, human IgG1, V domains shown)
VH: B3 VH with K12V, G62Q, E63K, R65Q, V66G, Y95F
VL: B1 VL with I2V, V88L, Y92F
notes: as for B1
B6: AL2p-h43 (antibody, human IgG1, V domains shown)
VH: B3 VH with I20V, G44R, T76A, Y95F, A117T
VL: B1 VL with I2V
notes: as for B1
B7: AL2p-h32 (antibody, human IgG1, V domains shown)
VH: B3 VH with A16S, L18V, I20V, S77T, Y95F, A117T
VL: B1 VL with I2V, V88L, Y92F
notes: as for B1
B8: AL2p-h35 (antibody, human IgG1, V domains shown)
VH: B1 VH
VL: B1 VL with I2V, V88L, Y92F
notes: as for B1
B9: AL2p-h34 (antibody, human IgG1, V domains shown)
VH: B1 VH with M48I, Y95F
VL: B1 VL with I2V, V88L, Y92F
notes: as for B1
B10: AL2p-h21 (antibody, human IgG1, V domains shown)
VH: B1 VH with S16A, A68V, I70M, A72R, A79V
VL: B1 VL with I2V, V88L, Y92F
notes: as for B1
B11: AL2p-h33 (antibody, human IgG1, V domains shown)
VH: B1 VH with M48I, I70L, S77T, Y95F
VL: B1 VL with I2V, V88L, Y92F
notes: as for B1
B12: AL2p-h76 (antibody, human IgG1, V domains shown)
VH: B1 VH with S16A, G44R, M48I, T76A, Y95F
VL: DVVMTQSPDSLAVSLGERATINCRSSQSLVHSNGYTYLHWYQQKPGQSPKLLIYKVSNRFSGVPDRFSGSGSGTDFTLTISSLQAEDVAVYYCSQSTRVPYTFGGGTKVEIK
notes: as for B1
B13: AL2p-h59 (antibody, human IgG1, V domains shown)
VH: B1 VH with S16A, G44R, A68V, A72R, T76A
VL: B1 VL with T7S, S12P, Q17E, Q105G, L109V
notes: as for B1
B14: AL2p-h22 (antibody, human IgG1, V domains shown)
VH: B1 VH with S16A, M48I, A68V, I70M, A79V
VL: B1 VL with I2V, V88L, Y92F
notes: as for B1
B15: AL2p-h44 (antibody, human IgG1, V domains shown)
VH: B1 VH with S16A, V18L, G44R, M48I, I70L, T76A, Y95F
VL: B1 VL with I2V
notes: as for B1
B16: AL2p-h30 (antibody, human IgG1, V domains shown)
VH: B1 VH with S16A, A68V, I70M
VL: B1 VL with I2V, V88L, Y92F
notes: as for B1
B17: AL2p-h23 (antibody, human IgG1, V domains shown)
VH: B3 VH with N61A, G62Q, E63K, R65Q, V66G
VL: B1 VL with I2V, V88L, Y92F
notes: as for B1
B18: AL2p-h47 (antibody, human IgG1, V domains shown)
VH: B3 VH with L18V, I20V, I48M, A68V, L70M, A72R, A79V, A117T
VL: B1 VL with I2V
notes: as for B1
B19: AL2p-h26 (antibody, human IgG1, V domains shown)
VH: B1 VH with S16A, G44R, M48I, A68V, T76A
VL: B1 VL with I2V, V88L, Y92F
notes: as for B1
B20: AL2p-h42 (antibody, human IgG1, V domains shown)
VH: B1 VH with S16A, G44R, A68V, A72R, T76A
VL: B1 VL with I2V
notes: as for B1

target: human TREM2/DAP12 fusion protein (human, UniProt O43914 41-113, limits assumed); test: cell-based or functional assay
Sequence (O43914 other isoform, or with tags, fused parts or gaps limits assumed): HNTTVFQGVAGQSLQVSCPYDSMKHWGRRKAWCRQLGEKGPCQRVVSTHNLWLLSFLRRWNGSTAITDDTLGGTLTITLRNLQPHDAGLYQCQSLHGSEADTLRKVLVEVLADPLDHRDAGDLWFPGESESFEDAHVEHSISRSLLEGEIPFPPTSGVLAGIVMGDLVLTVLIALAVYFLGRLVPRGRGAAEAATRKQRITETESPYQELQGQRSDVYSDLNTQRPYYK

Soluble luciferase activation at 10 µg/ml Fold over control [fold over control] | Binder
4.97 | B1
7.23 | B2
7.45 | B3
4.35 | B4
4.36 | B5
8.65 | B6
5.6 | B7
6.81 | B8
6.92 | B9
6.28 | B10
6.21 | B11
6.57 | B12
7.06 | B13
5 | B14
7.29 | B15
6.01 | B16
5.38 | B17
9.28 | B18
7.25 | B19
9.29 | B20

target: T1, human TREM2 expressed on cells; test: FACS, hTREM2 BW cells
Description: To examine cell binding of anti-TREM2 antibodies, recombinant, human TREM2-expressing BW5147.G.1.4 cells (ATCC® TIB48™) were established by stably expressing either mouse TREM2 or human TREM2 together with Dap12 using viral infection. Cells were harvested by scraping, washed in PBS, counted and plated on 96-well U bottom plates at 1)(10⁵ cells/well. The plates were spun at 1,400 rpm for 3 minutes and primary anti-TREM2 or control antibodies were added in FACS buffer (PBS H2% FBS) and incubated on ice for one hour. Cells were subsequently centrifuged as before and washed thrice with FACS buffer. Cells were then incubated with anti-human PE conjugated secondary antibody (BD Biosciences) in FACS buffer for 30 minutes on ice. Cells were again washed thrice with FACS buffer and analyzed on a BD FACS Canto. Binding was measured as mean fluorescence intensity in the APC channel.

cell binding (FOB) | Binder
87 | B1
78 | B2
90 | B3
126 | B4
69 | B5
91 | B6
81 | B7
69 | B8
84 | B9
76 | B10
74 | B11
86 | B12
69 | B13
61 | B14
80 | B15
88 | B16
76 | B17
93 | B18
78 | B19
79 | B20

target: T2, human TREM2 Fc fusion (entire TREM2 …); test: BLI, Fab, monovalent
Description: Briefly, IgG's were loaded on-line onto AHQ sensors. Sensors were equilibrated off-line in assay buffer for 30 minutes and then monitored on-line for 60 seconds for baseline establishment. For avid binding measurement, sensors with loaded IgGs were exposed to 100 nM antigen (human TREM2 Fc fusion using the entire TREM2 ECD; only one Fc arm was fused to TREM2) for 3 minutes, afterwards they were transferred to assay buffer for 3 minutes for off-rate measurement. Monovalent binding measurements were obtained by loading human TREM2 Fe fusion antigens to AHQ sensor and followed by exposure to 100 nM TREM2 antibody Fab. Kinetics data were fit using a 1:1 binding model in the data analysis software provided by ForteBio. Assay was run at room temperature (25° C.).

Kd [nM] | Binder
193 | B1
120 | B2
153 | B3
61.2 | B4
1150 | B5
134 | B6
144 | B7
127 | B8
142 | B9
137 | B10
225 | B11
83 | B12
130 | B13
325 | B14
180 | B15
181 | B16
334 | B17
161 | B18
95.3 | B19
141 | B20
